Measurements taken from US20220184120A1.

Molecular target: full-length MUC1 expressed on HCT-116 cells (cleavage resistant single cell clone) (Homo sapiens (Human)) (UniProt P15941)
Assay: flow cytometry, HCT-MUC1-41TR cells (FIG. 36D)

VU4H5 commercially available mouse monoclonal anti-MUC1 tandem repeat antibody
percent positive cells: 95%
